# In a protein production outcome set (Wang et al. 2014):
# Assay: label from the status in PepcDB records
# 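Also: failed if final PepcDB status was selected cloned or expressed and not failed if soluble or beyond.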
row,Sequence,protein production
1,MTIACPQCGATAEARTDTRFHGCAFCGSSFMVERGVGIAEYHLDHERDDRVAWSAVASTLERDGAGQAVERTGCEYLVAPFWLSRPESGGNRLVPALRHPWLQGPLPGLPGGDLLFVPSGDDFILPDIPADEALGEGADRGGTSLSLVYLPLYLLSFRLAGHDCRALVSAVDRRVALLTPLPARSESVPFRHAALVAGFAITLTASGLAVKSHFLRAAVFAAVLAVAWPVCTALLRRGE,failed
2,MTIAILSTGDEIIHGDTLNTNAHYIAHALCSEGLPLGLQVACSDKENEIIDSLNFLTQHHDILILIGGLGPTKDDITRFALAKFTKEPLLQHADALDHIEKKANIAKISLNQGNLQQCLFPANARLFPNPYGTAMGCSYSWKGKVFILLPGPPRECLPMFNQDVLPLLLQTSRHSNK,not failed
3,MTIHKKGQAHWEGDIKRGKGTVSTESGVLNQQPYGFNTRFEGEKGTNPEELIGAAHAACFSMALSLMLGEAGFTPTSIDTTADVSLDKVDAGFAITKIALKSEVAVPGIDASTFDGIIQKAKAGCPVSQVLKAEITLDYQLKS,not failed
4,MTIKSLLSDIEREERNVHKAIKDSVKRNDLVTAKALAREIVSSRRTVKRLYENKAQVNSISMHLGESIATAVTVGNLSKSGEVMKLVNSLMKAPEIAVTMQAFSKEMTKTGVIEEFVSDAVDNALDSEDIEEEIEEEVDKVLTAIAGETAAELPEAVRKQKMNVPAQKAETLHGEDAIVEGVDAEEELEAIRYRLANVRS,failed
5,MTIKTLQYDDFMLYRERIRDLLVQIYDINFDVSHDYSINESNKKINLLDEYIKTNQAVLIGAVDGEKLVGFIWIYKHEYFGETRMHINQIIVDKEYKRKGIGKRLLEEAEKKAKELGIKVIDLFVSEKNAEAVNFYEKTGFVTERRYLKKILLEHHHHHH,not failed
6,MTILDRLTGLAFPAAVLRRAIKLADSGKAAEAFPLMAKAARAGIVDAEYRVARCYLEGAGVPPSRMEGARWLLRAADHGSADAQALLAALYVTGLVTSEADGKGPSEHLFKPDSAGKPDFTAAFDFATKAAEAGSATGQAILGYILTSGPASMRDADAAHRWYEKSASAGCAEGCLGFALSLARRGKRENRVRIAEEVRRAADAGLPTATYLLAVLTEHGLGVARDMAAAAQLYQAAAEKGLPSAQFRLGLALIDGALVGQDVAAGEAWMRRAALAGNIEAAYLLGDRHAKTQRPDFAEAANWYRRAAEAGHQAAARALASLYLTGNGVAEDVEEGARWLRSSASAGNQQAQTDLANLILGGAGEPDDGASVAGWFEAAASSGDLIAAFNLGLCFAKGVGVRQDEGQAAHWLRRAAEGVAEAQYMYARLLQDGRGVAADPTQARVWFARAADAGVLDARVALAEMLLNGRGGMPEPEAAMQLFEQAAADGHAGAMFAIGALYGAGHGLPLDQTTAQKWYAAAAGRGHSQAQFMLGRYLLKGLAGERDPVAARLWLERAAAHGISEAADELGAAGGSD,failed
7,MTILTRYIAGAYLKILGLCLASFVAIYLVIDFLEKIGRLLRFQPRWIDIIQYFICKLPEIITQVIPLAVLMSTLLTLGMLSRNSEIVAMRGCGVGLGRISAPLIVIAAAVSLLTIFSNEFVLPSSYRQMRYVDQVLIRKQGTNTFFRQNNIWHKDESAIMMARVFDPGRQALRGITLWRFSDGMRPVSRIDAAEGTWDGARWTFKTVTVRGLAGPSVETRTLASLPAELNLKIEDLKVVDKYADNMGFFKLRDYVRKLKAGGYDTTRYEAQMHSKISLPFASLIMAFLGIPFALRGGRSSGVALGITASIGIGFAYFITNSILISFGQTGILPPLISAWAANVLFALSGIWLAMTLDR,failed
8,MTIPKLSPSPESYPESLTFAELGLNAALRKALPTRLKHPTRVQQLAIPAILAGRDLLALSQTGSGKTFAFGLPLLQILWQQIAVQTTAKSVPAAKPLALVLVPTRELALQVSEALHALASQLSTSAPLNIQLLCGGVALEQQLADLSAKPQLVVATPGRLLDLCTQSHISLDAIKHLVLDEADRLLEMGFWPDMQKLMAMMPKRKQTLLFSATLPEALDSLAGKLLTNDPLKVEASTRNAVVGEIEEQLYLVNKGSKAQALIALLKQYQWPQVLVFISARDDADAIAKRLVKAGINAAALHGEKDQTVRSQTLADFKADRIQVLVATDLMARGIHVDALPVVINLDLPTSAPVYVHRIGRTARAGAKGLAISLVCHGEMPNLTAIRNLTARALPLVFLADFPVTDKPSEKIIDGAENKVIPKRPPRDKQANRRSINKHSVKAFKGKR,failed
9,MTISNKTLTAAAAGLAAVLAVLLVPALAGQSAHTGHTMPAHTPPAQTAPAAQKAGAQALPVTVQGATVAAVPPSIRDTAAYMTLTNKSDQPIKLVGAATPLATSPMLMTTTHSGGMAGMKMVPWLTIPARGTLTLQRDGDHVMLMGLKRPLKVGETVNITLKATDGRTLNVAATVKKN,not failed
10,MTISQNRNGDDVAVHKFGLFVAKHRKLVLAIAILLLIPSIYGFVTTKVNYDILTYLPKDLESVKGQDILDKEFKQAALSMLIVKGDMNISNIQKLKSKISQVDGVEKVIWIDDFLDPTIPKEMLPDVLKNTFYSKDSTLLLIQFKNSASSLETQNAISKIRKIATAQCFLSGMSAIIKDTRDLSDRETPLYVLVAVVFIFILLLLTMESPIVPILFLTSIGMAIIYNLGTNKFLGEISYITKSLAAVLQLGVTMDFSIFLMHRYDEERKRFDSKEEAMAEAISKTLVAILSSAATAIAGFLALCVMRLRIGADIGIVMAKGVFLGVIGTVTILPALILTFDRAIHKFRLKNILPTFSKTAEFATKYHVVLFVVFLLAFIPAIYGRVNIKEYYNLIDSLPKTIKSVQATDLLKKEYNMTTTHMVLVDRSVPKYQIKNMCEEIKRVKGVEKVLAFDDILGPAIPDEFIPSSVKENFEKGNFKLIMINSIYKSATSEENAQIERIQQIVKKYSKRSYVTGEGVLTKDLVEMADTDLKRVDFISILAIFMIILITFKSISIPLILVLAIELAIFINLAIPYYTNVTVPFIASIVLGTIQLGSAINYAILMTTRFREEIQKGHDRFEAIKIAVKTSSRSVVTSALAFAFSTLAVALIAKIDMIRSLCEMLSRGAVISMIVILFVLPSLLLLFEGAIAKTTFGWRSKEASVKPSEEYETL,failed
11,MTISRNYDQEIKDTAGHKYAYNFDFDVMHPFMVRAFTPFFRPGNLLELGSFKGDFTSRLQEHFNDITCVEASEEAISHAQGRLKDGITYIHSRFEDAQLPRRYDNIVLTHVLEHIDDPVALLKRINDDWLAEGGRLFLVCPNANAVSRQIAVKMGIISHNSAVTEAEFAHGHRCTYALDTLERDASRAGLQVTYRSGIFFKALANFQWDQILQTDILSKEYLDGCYQLGQQYPDLCASIFLLCEKGINQ,not failed
12,MTITDKNRLTGEADPRRTSLYGPPSMDALTERALHLARAGRALLGIVGEPGAGKSTFAEQLRARLEKERPGLAVTVSMDGFHLAQKVIEARGQAADKGTIDTFDADGFVALLRRTRAETGDTENTESTVWWPEFDRDLEDPVAGSIEVAPHHRLVIVDGNFLLSAQEPWRQVKGLLDETWFLDALPEPRRERLTRRYISYGFTPEAARAKTLGVDEDTSALIRSTVSRADLVIGEARESGGVSDCLEHHHHHH,failed
13,MTKFNYKSSLYLFNTIFLISLTTLGTMVMIPFAVESKIPKKTSNSISPFCKVLSEKFSPFGAAPDLSVALGKAIAEGGNLNQPCDIFGEKWLPLNFLLSTDEELSQRLIQTGVNVNAKDGKGDTPLHYLGKSEKNARLLLSRGAKVNVGNQNGNTPLHNLFGQKTAYVIKLLIDRGAKVNARNQEQMTPLHFAANSGKADITELLISRGGDVNARSTQNWTPLHYGASNLEVAKKLIQAGADLTIQNREGAVIHSSSLEPAVLKLLLDRGVNVNLRNRQGQTPLHIHRFQPALVKLLLARKAQVNLRDAQGKTPLYDVNLEVARQLVAANADLNVQDNLGRTPLHQAVLEEQSFFGSELVTLFLSKNARVDLKDKQGKTALDLARQLNKTQIINLLERHMATKNSPGSGTSTTKATEQLQQFLKSKNWSAADQETRRLLSPQKDLFGLNAATIPLDLIQEIDRAWLVASDGRFGLSVQAKIWQKVIASHPNNSETAANTFRDRVGWKLKVARTENDFISSDWLNESELNYSLQAPVGHLPWAGVSDASVLSLAVPPPGEHCGSCTIDAMFLRDGRFYKYLPQLFARVKMALNMNVSRPKSLAIAKK,failed
14,MTKIIKYTNKDNETLYKFRFYAGLDEITGKQRYIRRQGFKSEKDAKTELLKIEYLVSTNQYFKSVKSGKFGDVLDEWLALHKETVKASTWRYIERRVKNHVRPYFKDMYVDKITLRHCQDFTNKAFAAAPVGFTQIISIVKNTLDYALRLGMIESNPMLYVIKPKKQTTISDKHGNYYNKDELKKFLAAAKDTDLKKYTLFRLLAYSGLRVGECLALTWHDLDYKNNTIAINKTYAKTNNGIKIQTPKTKASIRKVSLDVETIQVLKEWQLNQRKQLLKVGINAMNKQQLIFSNNKNSFIANETVRLAIHQIAKKTGIHPITTHGFRHTHATLLFASGMDIKQVQARLGHSNVQTTLNIYTHAIQDKQDKIGDEFAKYINF,failed
15,MTKKKVYIVSHSHWDREWYLPYEEHHMRLIELVDNVLDLIENDPEFNSFHLDGQTIILDDYLQVRPEKKEAVKKAVQAGKLKIGPFYILQDDFLISSESNVRNMLIGHLESQKWGAPVQLGYFPDTFGNMGQTPQMMQLANLPAAAFGRGVKPIGFDNQVLESDYSSQYSEMWWEGPDQTKIFGLLFANWYSNGNEIPSEKEAAIAFWKQKLADVERYASTNHLLMMNGVDHQPVQRDITKAIALANELFPEYEFIHSNFDDYLKAVQEELPEDLGTVTGELTSQETDGWYTLANTSSARVYLKQWNTKVQRQLENIAEPLAAMAYEVTGDYPHDQFDYAWKTLLQNHPHDSICGCSVDEVHRGMMTRFENANDVGHFLADEATRQLTEAIDTSVFPEKAHPFVLFNTSGYQKTEVVTVEVEIERLPFYTGKPEDLYHELKQKATPDYQVIDPTGKAVASRIVKEDVRFGYDLPKDAFRQPYMAKYLTVELSVKEMAPFSWDSFALIQGETKAFEGSLLAQPATNEMENEFIQVKIENNGSLTIADKKTGETFSKLLTFEDTGDIGNEYIFFKPTEDQGITTENVTAEITNKENSPVKASYQIKQTVMLPVAADERLEEEQKAVREFRERLAQRSTTLRPFEITTMVTMIKESNQLFFETTINNQIKDHRLRVLFPTGMVTETHEADSIYEVVTRPNQVSDTWENPTNPQHQQAFVNVHDQNKGVTIFNEGLNEYEVLADGTIAVTLIRCVGELGDWGYFATPEAQCQGEYTFKYGLSLHGKPEERFATYQQAYSAQIPFTAATTARHEGKLAPNHVYLTTAEGPIGWTAVKRQEQTNHLVVRGFNLTAQNIPCELHKETQPATCLTNVLEEPLTPAIEVDAPLRPFEIRTWRFEK,not failed
16,MTKLGYVMTKSSAKNFKIYINGSAKGFKNIIISGAKAWNPSPYLNTVSIGNDVRPNYTVSSSGTNKGSVLAVCNTTYYKSNKLISKNEITLYKGFRSLSTNHKIETIVHEFGHGFGLGHVKTKNAIMLDKGFINKTKPQTDDFNGIKALYKLEHHHHHH,not failed
17,MTKNEEGRVRRFVIRYVGSGRVPPCWIAGIFALCWGGVALAGGVALQSVDFTALPSENFQLRLGFDGPVPEPRSFTTEHPARIALDLAGVRSDLDKKPIPVHQAGVETVQAIAAGGRTRVILNLATAVPYTTRVAGRFLYVTLQSGKAGSRADDSASAPVVVTERPVVGGPQVESIDFRRGEKGEGRLLVALSDPNSLINLREEGRSVVADLPGTSLPGRLARRLEVIDFATPVKWVEAMPVGRGARLLITPVSDEYDYSSYQSGKLLTVELRPLSRAEKEEAKKRRLVFAGERLSLNFQDIPVRNVLQILADFTNLNIVASDSVQGSVTLRLNEVPWDEALDLVLKAKGLGKRQEANSNVIRVAPLDEINRSERDELEALKVVEDLEPLRTEIIQINYTKADDIKKVIMGTTEKAEKAITRPEALTGGPGVTSTEAYDVTQSILSSRGNVTTDPRTNQLIVQDTPRNLERIRDLVRQLDKPVRQVMIESRVVIANVDFLRELGAKLDFRPKNLTAAERLNPTGSMADLGVDLAKLTTLSPYGTAQYVVSMGDYLLDLELSAAQKEGRGEIVANPRVLTADQSKAKIMQGVELPYQITQQGTGGGIPVQNVAFKPAVLELDVTPHITPDDHILMDLMVKKDDKGELAPNGNFAIEKREIDTVAQVANGETVVLGGVYEGTRRNNTDKVPFFGDLPGIGFMFRRNAVEDRKKELLIFITPKIVKQTSMTP,failed
